This note sets out measurements from publication PMC7246340, “A Novel Anti-Kv10.1 Nanobody Fused to Single-Chain TRAIL Enhances Apoptosis Induction in Cancer Cells” (Frontiers in Pharmacology, 2020).

Sequences and labels used below:
B2: h1x antigen (E3-S5-pore segment fused to the C-terminal coiled coil domain of Kv10.1 and to thioredoxin) (domain or fragment, human)
chain: IGDYEIFDEDTKTIRNNSWLYQLAMDIGTPYQFNGSGSGKWEGGPSKNSVYISSLYFTMTSLTSVGFGNIAPSTDIEK
notes: Kv10.1 voltage-gated potassium channel, E3 segment (extracellular linker between S5 and S6 transmembrane segments, extending to the pore loop); numbers count on: Homo sapiens Kv10.1, isoform 1 (UniProt O95259-2); Kv10.1 voltage-gated potassium channel, C-terminal tetramerizing coiled-coil (C-terminal assembly domain); The coiled coil was added with the aim to induce tetramerization; the …

In test [1] the target is B2. Briefly: ELISA; plates coated overnight with 500 ng h1x in TBS, blocked with 2% BSA; VHHs (E. coli culture supernatants) incubated 2 h at different concentrations; detected by mouse anti-His antibody and peroxidase-conjugated anti-mouse; apparent affinities. Conditions: one partner purified. On the technique in general: In an ELISA, binding on a coated surface is turned into a signal by an enzyme label.

The next test has as its target T1, VHH-D9-scTRAIL (llama (Lama glama) | ).
T1 construct: nanobody D9, as the VHH of m4 without its His tag; TRAIL (Tumor Necrosis Factor-Related Apoptosis-Inducing Ligand) fragment, first of three in single-chain TRAIL; short peptide linker between TRAIL fragments; TRAIL fragment, second of three in single-chain TRAIL; TRAIL fragment, third of three in single-chain TRAIL; a linker between VHH and scTRAIL is not described; Vector tags were eliminated by …
The test is described as follows: ELISA; plates coated with 500 ng h1x or h2x, blocked with 3% BSA; Ab-scTRAIL constructs (CHO-K1 supernatants, not further purified) incubated 2 h at different concentrations; detected with the anti-TRAIL conjugate of the Quantikine TRAIL ELISA kit; apparent affinities. Conditions: one partner purified.

The target in test [2] is B2. The test is described as follows: SPR; recombinant antigen h1x immobilised on the chip; serial dilution of nanobody as analyte (D9 3.12 nM to 200 nM, C4 25 nM to 400 nM); 1:1 Langmuir model. The conditions noted are these: both partners purified. (In SPR one partner is held on a chip, and binding of the other changes the refractive index at the surface.)
Test [3] concerns the target B2. Briefly: ELISA; plates coated overnight with 500 ng h1x in TBS, blocked with 2% BSA; VHHs (E. coli culture supernatants) incubated 2 h at different concentrations; detected by mouse anti-His antibody and peroxidase-conjugated anti-mouse; apparent affinities. The conditions noted are these: one partner purified. The source holds these as a separate data set.
For test [4], the target named is B2.

B1: anti-Kv10.1 nanobody F5 (VHH)
VHH: QVQLVQSGGGLVQAGGSLRLSCAASGRTFENYIMAWFRQAPGEERKFVAAITGNGGTGYADSVKGRFTISRDNAKNTVLLQMNSLKPEDTAVYYCAAHSRSSYYYKGPDLYDYWGQGTQVTVSS
notes: From a phage display library of a llama immunised with h1x; His tag comes from the phage display vector; source: E. coli TG1TR, culture supernatants (ELISA)
With B1, in test [1], the Kd turned out to be 470 nM.
As to B2, in the test with VHH-D9-scTRAIL, the Kd was found to be 0.029 nM.

B3: anti-Kv10.1 nanobody G1 (VHH)
VHH: VQLVEVWGRIGAKRGGSLRLSCTAAGRTFSSYILAWFRQAPGEERKFVAGITGNGETGYSNSVKGRFTISRDNAKNTVLLQMNNLKPEDTAVYYCAAHSRSIYYYRGPDLYDYWGQGTQVTVSS
notes: as for B1
Regarding B3, the Kd in test [1] amounted to 431 nM.

B4: anti-Kv10.1 nanobody VHH-C4 (VHH)
VHH: RLLLVQSGGGLVQAGGSLRLSCAASGRTFSNYAMYWFRQTPGKDREFVASISYSGTFTDYAGSVKGRFTISRDNAKNTLYLQMNSLRPEDTAVYYCSLDRHYWGPGTQVTVSS
notes: Short CDR3 (six residues); His tag comes from the phage display vector; The preparation used for SPR is not described; source: E. coli TG1TR, culture supernatants (ELISA)
Consider B4, for which the Kd in test [2] stood at 1800 nM; in test [3], 81 nM; in test [1] it was 87 nM.

B5: anti-Kv10.1 nanobody VHH-D9 (VHH)
VHH: QVQLVQSGGGLVQAGGSLRLSCAASGRTFSNYAMYWFRQTPGKDREFVASISYSGTFTDYAGSVKGRFTISRDNAKNRLYLQMNSLKPEDTAVYYCSLDRLYWGQGTQVTVSS
notes: a model in PDB format is also in the Supplementary Information; Short CDR3 (six residues); His tag comes from the phage display vector; The preparation used for SPR is not described; source: E. coli TG1TR, culture supernatants (ELISA)
For the molecule B5, the Kd in test [2] amounted to 78 nM; in test [1], 11 nM.

B6: G10 (VHH)
VHH: EVQLVESGGGLVQPGGSLRLSCTAAGRTFSTYILAWFRQAPGEERKFVAGITGNGETGYSNSVKGRFTIARDNAKNTVFLQMNNLKPEDTAVYYCAAHSRSTYYYKGPDLYDYGQGTQVTVSS
Regarding B6, in test [4], the binding result is listed as “binds”.

B7: E12 (VHH)
VHH: EVQLVESGGGLVQAGGSLRLSCTASGRTFSSYIFAWFRQAPGEERKFVAGITGNGGTGYSNSVKGRFTISRDNAKNTVLLQMNNLKPDDTAVYYCAAHSRSSYYYRGPDLYDYWGQGTQVTVSS
As for B7, the binding result in test [4] is on record as “binds”.

B8: anti-Kv10.1 nanobody G4 (VHH)
VHH: QVQLVQSGGGLVQAGGSRRLSCTASGRTFSSYILGWFRQAPGEERKFVAAITGNGGTGYADSVKGRFTISRDNAKNTVLLQMNSLKPEDTAVYYCAAHSRSSYYYRGPDLYDYWGQGTQVTVSS
notes: as for B1
B8: the Kd in test [1] worked out at 943 nM.

B9: anti-Kv10.1 nanobody F6 (VHH)
VHH: QVQLVQSGGGLVQAGGSLRLSCTASGRTFGSYILAWFRQTPGEERKFVAGITGNGGTGYSDSVKGRFTISRDNAKNTVLLQMNNLKPEDTAVYYCAAHSRSSYYYKGPDLYDYWGQGTQVTVSS
notes: as for B1
Turning to B9, the Kd in test [1] is 177 nM.

B10: anti-Kv10.1 nanobody A12 (VHH)
VHH: RCKLQESGGGLVQAGGSLRLSCTAAGRTFSSYILAWFRQAPGEERKFVAGITGNGETGYSNSVKGRFTISRDNAKNTVLLQMNNLKPEDTAVYYCAAHSRSTYYYRGPDLYDYWGQGTQVTVSS
notes: as for B1
For the molecule B10, the Kd in test [1] was found to be 343 nM.
